Oligomeric state (subunits per complex) and Kd data for two substances are collected here from paper PMC8699970.

In assay [1] the target is AjNLRC4 (native, on coelomocytes) (Apostichopus japonicus (endogenous in coelomocytes)). The experiment in a line: cross-linking; sea cucumbers injected with V. splendidus for 30 min; coelomocytes treated with BS3 (5 mM, 4°C, 1 h); SDS-PAGE and western blotting with anti-AjNLRC4 antibodies. On the technique in general: Immunoblotting shows a protein as a band on a membrane.

Assay [2] has as its target GST-tagged AjNLRC4-IN (intracellular fragment of AjNLRC4 with the NACHT domain) (Apostichopus japonicus). Nature of the assay: MST; Monolith NT; labeled GST-AjNLRC4-IN (10 μM) constant, a range of concentrations of His-β-Actin; 50 mM Tris-HCl pH 7.8, 150 mM NaCl, 10 mM MgCl2, 0.05% Tween-20; 10 min incubation; 20% LED power, 80% MST power.

As for “AjNLRC4 (native, on coelomocytes) (receptor)”, the oligomeric state (subunits per complex) in assay [1] was 2. Regarding His-tagged Ajβ-actin (natural protein), the Kd in assay [2] came out at 5.87 µM.

The term Kd denotes the free concentration of one partner at which half of the binding sites on the other are occupied at equilibrium, for simple one-to-one binding. A lower Kd goes with a tighter complex.
